The target of assay [1] is T1, recombinant human BMP6 (Peprotech 120-06) (human, UniProt P22004 397-513).
T1 construct: Biotinylated and immobilised for SPR; also called hBMP6; Bone Morphogenetic Protein 6
T1 sequence: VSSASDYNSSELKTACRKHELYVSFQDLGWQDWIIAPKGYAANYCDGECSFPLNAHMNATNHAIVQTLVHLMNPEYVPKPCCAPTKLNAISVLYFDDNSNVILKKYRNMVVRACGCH
The experiment in a line: HTRF competition: unlabelled antibody titrated (11 points, top 3 µM) against labelled CL-58838 (10 nM) for binding to labelled human BMP6 (32 nM).

For assay [2], the target named is T2, human BMP6 (Peprotech), reduced monomer on SDS-PAGE (human, UniProt P22004 397-513).
T2 construct: also called reduced BMP6 monomers; 18 kDa monomer
T2 sequence: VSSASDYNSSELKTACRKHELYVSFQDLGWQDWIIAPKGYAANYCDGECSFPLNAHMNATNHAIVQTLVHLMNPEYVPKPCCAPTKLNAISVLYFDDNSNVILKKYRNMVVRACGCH
Briefly: Western blot after reducing SDS-PAGE. On the procedure: (§1) 2 μg/lane purified human BMP6 (Peprotech) separated by SDS-PAGE and stained with Coomassie blue (A) under reducing (R) and non-reducing (NR) conditions and Western blots from such gels blotted onto membranes and then probed with purified human anti-BMP6 antibodies as labelled.
(§2) Since BMP6 is a disulphide linked dimer the reducing condition should create monomers on the gel instead of dimers on the non-reduced gel.
(A western blot detects proteins with antibodies after separation by electrophoresis.)

Assay [3] addresses T1, recombinant human BMP6 (Peprotech …). Briefly: Western blot after non-reducing SDS-PAGE. The procedure:
as §1, §2

B1: CL-58756 (antibody, human IgG4 S228P, kappa, V domains shown)
VH: QVQLVESGGGLVKPGGSLRLSCAASGFTFSDYYMSWIRQAPGKGLEWVSYISISGSTIYYADSVKGRFTISRDNAKNSLYLQMNSLRAEDTAVYYCARRSSGWYDYWGQGTLVTVSS
VL: EIVLTQSPGTLSLSPGERATLSCRASQSVSSNYLAWYQQKPGQAPRLLIYGASIRATGIPDRFSGSGSGTDFTLTISRLEPEDFAVYCCHQYGSSPPTFGQGTKVEIKR
In the case of B1, the binding result in assay [1] is recorded as “binds”.

B2: CL-58722 (antibody, human IgG4 S228P, kappa, V domains shown)
VH: QVQLVESGGGLVKPGGSLRLSCAASGFTFSDYYMSWIRQAPGKGLEWVSYISISGSTIYYADSVKGRFTISRDNAKNSLFLQMNSLRAEDTAVYYCARRSSGWYDYWGQGTLVTVSS
VL: EIVLTQSPGTLSLSPGERATLSCRASQSVSSNYLAWYQQKPGQAPRLLIYGASIRATGIPDRFSGSGSGTDFTLTISRLEPEDFAVYSCHQYGSSPPTFGQGTKVEIKR
Regarding B2, in assay [1], the binding result is “binds”.

B3: CL-58713 (antibody, human IgG4 S228P, kappa, V domains shown)
VH: QVQLVESGGGLVKPGGSLRLSCAASGFTFSDYYMSWIRQAPGKGLEWVSYISISGITIYYADSVKGRFTISRDNARNSLYLQMNSLRAEDTAVYYCARRSSGWYDYWGQGTLVTVSS
VL: EIVLTQSPGTLSLSPGERATLSCRASQSVSYNYLAWYQQKPGQAPRLLIYGASIRATGIPDRFSGSGSGTDFTLTISRLEPEDFAVYCCHQYGSSPPTFGQGTKVEIKR
On to B3, for which the binding result in assay [1] is reported as “binds”.

B4: Antibody B (antibody, human IgG1, lambda, V domains shown)
VH: QVQLVESGGGLVKPGGSLRLSCAASGFTFSSYVVHWVRQAPGKGLEWVGRIRLETHGYAAEYAASVKGRFTISRDDSKNTLYLQMNSLKTEDTAVYYCARVERSKSGFDNWGQGTLVTVSS
VL: QSVLTQPPSVSGAPGQRVTISCTGSSSNIGAGYSVHWYQQLPGTAPKLLIYGQSERPSGVPDRFSGSKSGTSASLAITGLQAEDEADYYCQSWDSSQTLVVFGGGTKLTVLG
notes: also called anti-BMP6 Antibody B
For B4, the binding result in assay [2] and in assay [3] was “binds” in each case.

The values above are taken from patent publication US20220073598A1 (KYMAB, published 2022).
